Reference: paper doi:10.1101/2023.02.03.526966

molecular target: recombinant mouse nidogen-2 (ELISA) (mouse) (UniProt O88322); experiment: ELISA
Sequence of UniProt O88322 (O88322 31-1403): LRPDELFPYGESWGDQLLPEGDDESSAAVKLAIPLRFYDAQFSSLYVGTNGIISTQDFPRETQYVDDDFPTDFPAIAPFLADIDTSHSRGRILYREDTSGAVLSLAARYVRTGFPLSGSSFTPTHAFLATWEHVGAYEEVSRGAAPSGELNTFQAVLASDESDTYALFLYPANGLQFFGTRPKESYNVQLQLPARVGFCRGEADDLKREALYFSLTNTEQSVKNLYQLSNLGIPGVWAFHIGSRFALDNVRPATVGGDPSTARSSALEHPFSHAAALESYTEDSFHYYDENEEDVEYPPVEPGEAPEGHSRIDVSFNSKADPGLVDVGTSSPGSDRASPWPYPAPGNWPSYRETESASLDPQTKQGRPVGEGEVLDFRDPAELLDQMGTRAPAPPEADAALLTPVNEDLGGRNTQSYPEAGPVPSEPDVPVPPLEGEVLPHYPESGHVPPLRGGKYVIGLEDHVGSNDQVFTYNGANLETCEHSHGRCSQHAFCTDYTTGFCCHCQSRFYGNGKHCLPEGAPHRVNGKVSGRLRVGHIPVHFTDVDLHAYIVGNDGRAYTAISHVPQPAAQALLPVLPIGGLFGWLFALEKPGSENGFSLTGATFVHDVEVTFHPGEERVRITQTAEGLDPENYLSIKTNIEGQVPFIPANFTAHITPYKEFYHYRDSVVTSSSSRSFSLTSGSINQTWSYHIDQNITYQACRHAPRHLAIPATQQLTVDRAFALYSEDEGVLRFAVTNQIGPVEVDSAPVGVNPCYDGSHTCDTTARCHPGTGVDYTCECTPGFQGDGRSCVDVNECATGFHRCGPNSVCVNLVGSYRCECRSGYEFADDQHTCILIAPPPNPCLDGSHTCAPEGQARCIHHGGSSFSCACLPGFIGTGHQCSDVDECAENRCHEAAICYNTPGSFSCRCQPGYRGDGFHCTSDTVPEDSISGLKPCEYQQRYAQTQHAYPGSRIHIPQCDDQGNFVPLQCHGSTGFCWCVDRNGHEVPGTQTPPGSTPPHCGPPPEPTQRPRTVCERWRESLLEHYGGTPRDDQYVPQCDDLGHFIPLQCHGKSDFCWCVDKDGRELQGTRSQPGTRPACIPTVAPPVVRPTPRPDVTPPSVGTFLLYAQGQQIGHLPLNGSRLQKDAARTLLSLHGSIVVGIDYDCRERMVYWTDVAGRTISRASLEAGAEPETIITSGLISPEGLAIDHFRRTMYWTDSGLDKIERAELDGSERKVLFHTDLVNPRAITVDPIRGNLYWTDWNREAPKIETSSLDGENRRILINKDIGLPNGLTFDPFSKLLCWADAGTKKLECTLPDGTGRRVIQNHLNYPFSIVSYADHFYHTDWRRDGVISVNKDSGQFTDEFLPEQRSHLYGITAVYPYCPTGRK

Substance	Kd [nM]
LAR FNIII4-FLAG (purified soluble 4th FNIII domain of LAR) (domain or fragment)	1900
LAR FNIII7-FLAG (purified soluble 7th FNIII domain of LAR) (domain or fragment)	2500
LAR FNIII2-FLAG (purified soluble 2nd FNIII domain of LAR) (domain or fragment)	2000
LAR FNIII5-FLAG (purified soluble 5th FNIII domain of LAR) (domain or fragment)	1400
